5 molecules from patent US20250002593A1 (INMAGENE PTE, published 2025) can be followed below.

Where two headings read alike, the source gives them in different places.

Test [1] concerns the target T1, Recombinant hIL-36R protein (Acrobio, Cat #IL2-H52H6) (human, UniProt Q9HB29 20-335).
T1 construct: Bought soluble protein; also called recombinant human IL-36R protein
T1 sequence: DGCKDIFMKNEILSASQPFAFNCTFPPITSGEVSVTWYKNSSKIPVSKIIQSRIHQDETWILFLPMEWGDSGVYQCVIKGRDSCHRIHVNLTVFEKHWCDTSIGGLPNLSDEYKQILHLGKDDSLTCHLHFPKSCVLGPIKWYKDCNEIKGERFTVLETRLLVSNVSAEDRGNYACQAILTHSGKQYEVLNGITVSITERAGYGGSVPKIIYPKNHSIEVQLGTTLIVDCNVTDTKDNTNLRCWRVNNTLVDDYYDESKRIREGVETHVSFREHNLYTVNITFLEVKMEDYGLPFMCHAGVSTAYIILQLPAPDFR
In words: BLI (Gator).

Test [2] deals with T2, membrane hIL-36R (human, UniProt Q9HB29 20-575).
T2 sequence: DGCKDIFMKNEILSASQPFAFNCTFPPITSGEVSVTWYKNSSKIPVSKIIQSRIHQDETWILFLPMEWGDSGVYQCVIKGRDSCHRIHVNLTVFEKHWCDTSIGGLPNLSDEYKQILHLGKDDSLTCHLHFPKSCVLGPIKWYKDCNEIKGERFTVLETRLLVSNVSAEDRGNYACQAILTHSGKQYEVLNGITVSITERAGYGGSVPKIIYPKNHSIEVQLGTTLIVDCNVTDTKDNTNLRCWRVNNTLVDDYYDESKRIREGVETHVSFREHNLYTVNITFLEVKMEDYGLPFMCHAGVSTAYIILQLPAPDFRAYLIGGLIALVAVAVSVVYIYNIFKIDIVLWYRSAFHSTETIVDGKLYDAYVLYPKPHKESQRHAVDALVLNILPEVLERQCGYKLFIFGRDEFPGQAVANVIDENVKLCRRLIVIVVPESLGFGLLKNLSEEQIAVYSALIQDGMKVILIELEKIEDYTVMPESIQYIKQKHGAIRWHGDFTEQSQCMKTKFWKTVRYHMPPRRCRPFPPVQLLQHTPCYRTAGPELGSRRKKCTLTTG
In words: cell-based or functional assay.

The target of test [3] is T1, Recombinant hIL-36R protein (Acrobio, …). In words: BLI as in Example 2, antibody on Protein A sensor, hIL-36R analyte.
Test [4] has as its target T2, membrane hIL-36R. In words: cell-based or functional assay. The source holds these as a separate data set.
For test [5], the target named is T2, membrane hIL-36R. In words: flow cytometry on HEK293 cells transfected with pcDNA3.1-hIL36R, FITC anti-hIgG, MFI (median); unit taken from the x axis.
Test [6] concerns the target T2, membrane hIL-36R. In words: cell-based or functional assay. This is another data set of the same source.
Test [7] addresses T2, membrane hIL-36R. In words: cell-based or functional assay. The source holds these as a separate data set.
For test [8], the target named is T1, Recombinant hIL-36R protein (Acrobio, …). The experiment in a line: SPR (Biacore T200, 25 C), antibody captured by Fc, hIL-36R analyte.
The target of test [9] is T3, recombinant hIL-36R-his (human, UniProt Q9HB29 20-337).
T3 construct: Residues 1-337 (extracellular domain) are stated for the IL-36R-his used as immunogen; The range includes the signal peptide; no cleavage site is stated; also called recombinant hIL36R protein; recombinant human IL-36R-his protein; not shown: His tag
T3 sequence: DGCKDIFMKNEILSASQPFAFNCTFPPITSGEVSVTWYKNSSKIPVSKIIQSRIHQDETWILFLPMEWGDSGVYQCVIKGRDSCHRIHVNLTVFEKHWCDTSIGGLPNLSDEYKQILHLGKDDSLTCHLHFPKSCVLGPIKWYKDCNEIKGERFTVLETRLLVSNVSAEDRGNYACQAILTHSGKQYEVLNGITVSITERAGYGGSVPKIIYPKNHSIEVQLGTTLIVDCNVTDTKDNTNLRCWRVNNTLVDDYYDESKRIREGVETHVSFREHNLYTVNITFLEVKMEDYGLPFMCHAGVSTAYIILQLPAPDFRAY
In words: ELISA on coated recombinant hIL36R protein (1 µg/ml), detection with HRP anti-hIgG; unit taken from the x axis Ab(µg/mL).

Test [10] has as its target T4, Recombinant hIL1R1 protein (human, UniProt P14778 18-332, limits assumed).
T4 sequence (looked up): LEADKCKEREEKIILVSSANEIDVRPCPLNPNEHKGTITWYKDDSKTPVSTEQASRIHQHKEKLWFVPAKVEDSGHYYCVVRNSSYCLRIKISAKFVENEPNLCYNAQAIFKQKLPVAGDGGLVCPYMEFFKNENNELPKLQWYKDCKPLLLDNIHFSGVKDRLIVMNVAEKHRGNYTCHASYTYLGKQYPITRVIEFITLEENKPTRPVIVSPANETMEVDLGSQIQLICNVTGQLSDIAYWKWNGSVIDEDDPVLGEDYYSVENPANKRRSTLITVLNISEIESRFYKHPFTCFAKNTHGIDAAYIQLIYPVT
The experiment in a line: ELISA on coated recombinant hIL1R1 protein, detection with HRP anti-hIgG.

Test [11] concerns the target T2, membrane hIL-36R. In words: cell-based or functional assay. The source holds these as a separate data set.
Test [12] has as its target T2, membrane hIL-36R. In words: cell-based or functional assay. The source holds these as a separate data set.
The target in test [13] is T2, membrane hIL-36R. The experiment in a line: cell-based or functional assay. This is another data set of the same source.

B1: 5F7-2a6 (antibody, human IgG4 S228P, kappa, V domains shown)
VH: EVQLVESGGGLVKPGGSLRLSCAASGFDFTDYYMNWVRQAPGKGLEWVALIRNKAAGYTIYYSAPVKGRFTISRDDSKSTLYLQMNSLKTEDTAVYYCVRDMTIYDGYYVDYALDYWGQGTLVTVSS
VL: DIVMTQSPSSVSASVGDRVTITCRASRNINIWLSWYQQKPGKAPKLFIYKASNLHTGVPSRFSGSGSGTDFTLTISSLQPEDFATYYCLQSQSYPLTFGQGTKLEIKR
The Kd is a measure of binding affinity in units of concentration. A word on the kon: it is a measure of how fast the partners come together. As for B1, in test [1], the Kd was under 0.1 nM and the kon was found to be 39800 M⁻¹ s⁻¹. The “IC50, IL-36R reporter assay: inhibition of ligand induced luminescence in Jurkat-IL36R-IL1Racp-NFkB-luc cells” value (“IC50, IL-36R reporter assay: inhibition” for short) in [2] came to 0.0228 µg/mL.

B2: 5F7-2a1 (antibody, human IgG4 S228P, kappa, V domains shown)
VH: EVQLVESGGGLVKPGGSLRLSCAASGFDFTDYYMHWVRQAPGKGLEWVALIRNKAAGYTIYYSAPVKGRFTISRDDSKSTLYLQMNSLKTEDTAVYYCVRDMTIYDGYYVDYALDYWGQGTLVTVSS
VL: DIVMTQSPSSVSASVGDRVTITCRASRNINIWLSWYQQKPGKAPKLFIYKASNLHTGVPSRFSGSGSGTDFTLTISSLQPEDFATYYCLQSQSYPLTFGQGTKLEIKR
Consider B2, for which, in [1], the equilibrium dissociation constant (Kd) is under 0.1 nM and the kon was found to be 32500 M⁻¹ s⁻¹. In [2], the “IC50, IL-36R reporter assay: inhibition” value amounted to 0.0195 µg/mL.

B3: 5F7-hu-5 (antibody, V domains shown)
VH: EVQLVESGGGLVKPGGSLRLSCAASGFAFTDYYMNWVRQAPGKGLEWVALIRNKAAGYTIYYSAPVKGRFTISRDDSKSTLYLQMNSLKTEDTAVYYCVRDMTIYDGYYVDYALDYWGQGTLVTVSS
VL: DIVMTQSPSSVSASVGDRVTITCRASQNINIWLSWYQQKPGKAPKLFIYKASNLHTGVPSRFSGSGSGTDFTLTISSLQPEDFATYYCLQSQSYPLTFGQGTKLEIK
notes: Humanized 5F7; also called humanized 5F7
A word on the koff: it is the rate constant with which the complex falls apart. For B3, in test [3], the Kd was found to be 6.28 nM, the koff is 0.000294 s⁻¹ and the kon worked out at 46700 M⁻¹ s⁻¹. The “IC50, IL-36R reporter assay: inhibition” value in test [4] is 0.0781 µg/mL.

B4: 5F7-hu-2 (antibody, V domains shown)
VH: QVQLQESGGGLVKPGGSLRLSCAASGFAFTDYYMNWIRQAPGKGLEWVSLIRNKAAGYTIYYADSVKGRFTISRDNAKSSLYLQMNSLRAEDTAVYYCVRDMTIYDGYYVDYALDYWGQGTLVTVSS
VL: EIVMTQSPATLSVSPGERATLSCRASQNINIWLSWYQQKPGQAPRLFIYKASNLHTGVPARFSGSGSGTEFTLTISSLQSEDFAVYYCLQSQSYPLTFGQGTKLEIK
notes: as for B3
For the molecule B4, in test [3], the Kd worked out at 6.86 nM, the koff came out at 0.000233 s⁻¹ and the kon was 34000 M⁻¹ s⁻¹. Besides, the “IC50, IL-36R reporter assay: inhibition” value in test [4] is 0.086 µg/mL.

B5: ANB019 (antibody, V domains shown)
VH: QVQLVQSGAEVKKPGASVKVSCKASGYTFTNYWMNWVRQAPRQGLEWMGMFHPTGDVTRLNQKFKDRVTMTRDTSTSTVYMELSSLRSEDTAVYYCARTTSMIIGGFAYWGQGTLVTVSS
VL: DIVMTQTPLSLSVTPGQPASISCRSSKSLLHRNAITYFYWYLHKPGQPPQLLIYQMSNLASGVPDRFSGSGSGTDFTLKISRVEAEDVGVYYCAQNLELPLTFGGGTKVEIK
notes: also called benchmark antibody
In general, EC50 refers to the concentration needed to bring the measured effect to its halfway point. Take B5: in test [5], the EC50 was 0.119 µg/mL. For the same molecule, in test [6], the “IC50, inhibition of IL-36α induced IL-8 release in A431 cells (IL-8 ELISA, OD450) [panel IL-36α]” value came to 1.58 µg/mL; the “IC50, inhibition of IL-36β induced IL-8 release in A431 cells (IL-8 ELISA, OD450) [panel IL-36β]” value turned out to be 0.496 µg/mL; the “IC50, inhibition of IL-36γ induced IL-8 release in A431 cells (IL-8 ELISA, OD450) [panel IL-36γ]” value was found to be 0.0474 µg/mL. In test [7], the “IC50, inhibition of IL-36γ induced IL-6 release in primary human epithelial keratinocytes (HEK cells) [panel IL-6]” value is 0.159 µg/mL; the “IC50, inhibition of IL-36γ induced IL-8 release in primary human epithelial keratinocytes (HEK cells) [panel IL-8]” value is 0.187 µg/mL; the “IC50, inhibition of IL-36γ induced TNF-α release in primary human epithelial keratinocytes (HEK cells) [panel TNF-α]” value was found to be 0.0726 µg/mL. In [8], the Kd was 13.2 nM, the off-rate (koff) was 0.000444 s⁻¹ and the association rate constant (kon) amounted to 33500 M⁻¹ s⁻¹. For the same molecule, the “IC50, IL-36R reporter assay: inhibition” value in [2] was 0.0324 µg/mL. The EC50 in [9] came to 0.0228 µg/mL. Also, the binding result in test [10] is recorded as “no binding (tested: 1 µg/mL)”. Moreover, in test [11], the “IC50, inhibition of IL-36β induced IL-6 release in primary human epithelial keratinocytes (HEK cells) [panel IL-6]” value worked out at 0.094 µg/mL; the “IC50, inhibition of IL-36β induced IL-8 release in primary human epithelial keratinocytes (HEK cells) [panel IL-8]” value stood at 0.35 µg/mL; the “IC50, inhibition of IL-36β induced TNF-α release in primary human epithelial keratinocytes (HEK cells) [panel TNF-α]” value stood at 0.0577 µg/mL. Also, in test [12], the “IC50, inhibition of IL-36α induced IL-6 release in primary human epithelial keratinocytes (HEK cells) [panel IL-6]” value came out at 1.35 µg/mL; the “IC50, inhibition of IL-36α induced IL-8 release in primary human epithelial keratinocytes (HEK cells) [panel IL-8]” value stood at 1.15 µg/mL; the “IC50, inhibition of IL-36α induced TNF-α release in primary human epithelial keratinocytes (HEK cells) [panel TNF-α]” value came to 0.266 µg/mL. In addition, the “IC50, inhibition of IL-36α induced IL-8 release in primary human dermal fibroblast (HDF) cells (IL-8 ELISA, OD450)” value in [13] is 0.106 µg/mL.
